Test results as given in the DeepSol protein solubility set.

Assay: soluble on expression in E. coli; label from the status in PepcDB or PDB records
With “MKRFNDFSKMKAFKDAQEHGKNRYKDVGCLDNNRVKLGGAWPHEYIHANYVSTPTNPKRFICTQAPLEKTCADFWFMCLQDRVETIFMLCNYKEKGAKKCHEYLPTEDNKDTMSFKEKGQKVTVKFESSKAIKFRDNSAAKVTKTVLTVEGAGCDKLKVNHYHWIDWPDRGVPTADNAILELLEKARVSKGPIAVHCSAGIGRTGSVVMLEYVMDQLLAGQIIEDTDKIIQKIREQRNNSVQTDHQYLFVHQVMMNFFEKRGLLDEATSAIHKDFTDQYSKCVL” the “soluble on expression in E. coli” value was “not soluble”.
For “MKRGKQTCKILKDIRRQIAEANDIEFITSECQYQGDCLGTCPKCEAEVRYLEQQLERKRMAGKAITILGISAGLVAMAPMTSCSSSPNKGTNQETISDSTNASVMFGEICPTPVEDTIPMVEKDTVNKQELPELPQEMGLIEITPISGDIITVKDSLSEKDSLTDVLEVAAVMPEFPGGARELMKFISANIRYPSMSQGGVCQGRAIVQFIVDKEGNIVQPKVVRGVDPYLDKEALRVVGLMPKWKPGELDDGTKVAVRFTIPVMFRLQ”, the “soluble on expression in E. coli” value was “not soluble”.
With “MKRIILSIVWGLLTGWAAVPCLWAQSRTGTADREIWVKTLVRLADPVLSNLANETLKKEMPYESLAPNRQRFSYLEAVGRTVCGIAPWLELGEDDTPEGQLRKKYIELTVKGISNAVNPSSPDYLIFGEPSQPLVDAAFLAEGLLRAPKQLWGNLSPAARKQVVTELKRSRVIKPNESNWLLFASIVEAALQEFTGECDTTRLNYGVRKFRDLWYKGDAQYGDGAEFHLDYYNSFVIHPMLTDVLVVMQKHRMPESEFLNVQQKRLGRYAEQLERFISPEGTYPVIGRSIVYRTGVFHALGQAALLHLLPQQIVPAQVRCGMTKVIENQFRSAANFDTKGWLKIGFSGNQVQMSESYINTGSTYLCLTGFLPLGLPADDPFWSAPPAEWTNLKAWSGKEMPADHSLLEHHHHHH” the “soluble on expression in E. coli” value was “not soluble”.
With “MKRIVVKVGSHVISEENTLSFERLKNLVAFLAKLMEKYEVILVTSAAISAGHTKLDIDRKNLINKQVLAAIGQPFLISVYNELLAKFNKLGGQILLTGKDFDSRKATKHAKNAIDMMINLGILPIINENDATAIEEIVFGDNDSLSAYATHFFDADLLVILSDIDGFYDKNPSEFSDAKRLEKITHIKEEWLQATIKTGSEHGTGGIVTKLKAAKFLLEHNKKMFLASGFDLSVAKTFLLEDKQIGGTLFE” the “soluble on expression in E. coli” value was “soluble”.
With “MKRKSKAGGASDKSKSPKLKKRRSVVLEPIHISPKYLEDKFKTEFKKGFEKSNGPFPHWQLRNFVDNSDNVVEKIEDELQNFEGWKRKENDLYSLYQSDDLKSINPVENPAVFSFRQFLYKEVKEWLQNVSGVELTEQVDCNGSCYARTDSLLPHNDLIETRRFAFVYYITSADWDSEVNGGDLQLFNHDKKLQPTSVAAQFSPLRNSFMLFEVSEKSWHRVAEMLSEEPRLSINGWFHSTRRIEPKKPAVEAIQRFVPEAACKLSKLISKEYLQKERQDEVQQTFADSSELNLSKFIFEEIHDNAYSELISNPSCFETVGPVSKRHVARLDEEKSADLQNTKRIIQCLKSKNFAKLAAKLTGVTVTGAQTSVKVSRVEHGTYWVLGDEDAEQSSTDGYCLDVHLFVQKTNWDDEAGGDLIYIEEGDTEELLRISPSPNAASIVFREPGVISFMKYANCKSSDPFFLFTVSFYNVQVVED” the “soluble on expression in E. coli” value was “not soluble”.
For “MKRKTKIVSTIGPASESVDKLVQLMEAGMNVARLNFSHGDHEEHGRRIANIREAAKRTGRTVAILLDTKGPEIRTHNMENGAIELKEGSKLVISMSEVLGTPEKISVTYPSLIDDVSVGAKILLDDGLISLEVNAVDKQAGEIVTTVLNGGVLKNKKGVNVPGVKVNLPGITEKDRADILFGIRQGIDFIAASFVRRASDVLEIRELLEAHDALHIQIIAKIENEEGVANIDEILEAADGLMVARGDLGVEIPAEEVPLIQKLLIKKSNMLGKPVITATQMLDSMQRNPRPTRAEASDVANAIFDGTDAVMLSGETAAGQYPVEAVKTMHQIALRTEQALEHRDILSQRTKESQTTITDAIGQSVAHTALNLDVAAIVTPTVSGKTPQMVAKYRPKAPIIAVTSNEAVSRRLALVWGVYTKEAPHVNTTDEMLDVAVDAAVRSGLVKHGDLVVITAGVPVGETGSTNLMKVHVISDLLAKGQGIGRKSAFGKAVVAKTAEEARQKMVDGGILVTVSTDADMMPAIEKAAAIITEEGGLTSHAAVVGLSLGIPVIVGVENATTLFKDGQEITVDGGFGAVYRGHASVL”, the “soluble on expression in E. coli” value was “soluble”.
With “MKRLDKKEALDLLHHASLTELGEMAYKRKLELHPEKITTFVVDRNINYTNVCCIDCSFCAFYRHHKEDDAYILSFEEIGKKIEELEAIGGTQILFQGGVHPKLKIEWYEELVSWIKEHYPNITVHGFSAVEIAYIAKASKISITEVLKRLQAKGLFSIPGAGAEVLSDRVRDIIAPNKCDTATWLEVHRQAHKIGMKSTATMMFGTVENDEEIIDHFEHLRKLQDETGGFRAFILWSFQSDNTALIQKHPEIMKQSSNKYLRLLALVRLYLDNFKNLQSSWVTQGSLIGQLALKFGANDLGSTMMEENVVSAAGASYRMNQDEMIRLIRSLGENPAKRNTAYEILERFLEHHHHHH” the “soluble on expression in E. coli” value was “not soluble”.
For “MKRPDYRTLQALDAVIRERGFERAAQKLCITQSAVSQRIKQLENMFGQPLLVRTVPPRPTEQGQKLLALLRQVELLEEEWLGDEQTGSTPLLLSLAVNADSLATWLLPALAPVLADSPIRLNLQVEDETRTQERLRRGEVVGAVSIQHQALPSCLVDKLGALDYLFVSSKPFAEKYFPNGVTRSALLKAPVVAFDHLDDMHQAFLQQNFDLPPGSVPCHIVNSSEAFVQLARQGTTCCMIPHLQIEKELASGELIDLTPGLFQRRMLYWHRFAPESRMMRKVTDALLDYGHKVLRQD”, the “soluble on expression in E. coli” value was “soluble”.
For “MKRSIKHIYLLSDATGETVERVVRAALSQFRDVEARFHRVTRIRSREDVIWALEEVLREPGMVVYTLVDTELAQLLRDEAEAHGLDAIDLISPLLFKLSDFFGEAPQKEPGLLHQINSEYHKRVDAVDFTVKHDDGQDPRGLAKADFILVGVSRSSKTPLSMYLAHKGYKVANVPIVKGIDPPPELYKVDQKRVVGLIIDAERLVQIRTARLRNLGQMPKGSYADYERIEEELEFCRRLYRRNPQWLVIDVTKKSVEESAAEIIQKLAGLEHHHHHH”, the “soluble on expression in E. coli” value was “not soluble”.
For “MKRYTPDFPEMMRLCEMNFSQLRRLLPRNDAPGETVSYQVANAQYRLTIVESTRYTTLVTIEQTAPAISYWSLPSMTVRLYHDAMVAEVCSSQQIFRFKARYDYPNKKLHQRDEKHQINQFLADWLRYCLAHGAMAIPVY”, the “soluble on expression in E. coli” value was “not soluble”.
In the case of “MKSADLIIIGGGMVGLALAGLLKDSPCQIKIIEKSAPKTQKYYANRVSAINTASEKMLQQLGVFEHIPTDAYTDYQKIIVSEKDSFAKIEFDNNDLAIKQLGLTQLGLIIANSQLQQALWQQVSQQKNVEIILSTPKTIGISESGAFLTLENGEMLAGKLVVGADGAHSWLRNQINIPLISQDYQQTALVCCVETAEPHNNIARQIFGPDSILAFLPLADKNQCSIVWSLPPDQANKLTTCDEQQFNQALTIAFDYQLGLVKLQDSRKIYPLTARYARDFAQMRIALIGDAAHTIHPLAGLGVNLGFADAITLAEQIKLHLAAAHDIGEYRHLRYFERTRKTETIKLLAAMEGLKQLFSGNNPLKKLIRGIGLVGTNHFSAIKKRLIEQVVNILEHHHHHH”, the “soluble on expression in E. coli” value is reported as “soluble”.
With “MKSEIIAVGTEILTGQIVNTNSQFLSEKFAELGIDVYFQTAVGDNEERLLSVLKIAKERSDLIVLCGGLGPTEDDLTKQTLAKFLKRELVFDKTAQERLDEFFASRPTSMRTPNNECQAQIIAGSQPLSNKTGLAVGGLLEADGVTYVVLPGPPSELKPMVNKELLPYLSKTSEKLYSRVLRFFGIGESHLVTLLHDLIAEQTDPTIAPYAKTGEVTIRLSTKAHRQKEADSKLDKLEKKIITIDNLADYFYGYGEENSLPQVVFDLLKEKGKTITAAESLTAGLFQARLADFAGASDIFKGGFITYSIEEKARMLGIPFEDLQLHGVVSAFTAEKMAERSRQLTQADLAISLTGVAGPDSLEGQPAGTVFIGLSSSKRTMAIKVLIGGRSRSDVRYIAVLHAFNLVRQTLLSHKNLV” the “soluble on expression in E. coli” value was “soluble”.
